Laboratory results as given in patent publication US20260053904A1 (BIOATLA, published 2026).
Positions count from the first letter of the chain named.

T1: recombinant human EpCAM extracellular domain (human, UniProt P16422 24-265)
T1 construct: extracellular domain; Plate-coated antigen of the ELISAs; also called human EpCAM ECD; recombinant EpCAM antigen
T1 sequence (looked up): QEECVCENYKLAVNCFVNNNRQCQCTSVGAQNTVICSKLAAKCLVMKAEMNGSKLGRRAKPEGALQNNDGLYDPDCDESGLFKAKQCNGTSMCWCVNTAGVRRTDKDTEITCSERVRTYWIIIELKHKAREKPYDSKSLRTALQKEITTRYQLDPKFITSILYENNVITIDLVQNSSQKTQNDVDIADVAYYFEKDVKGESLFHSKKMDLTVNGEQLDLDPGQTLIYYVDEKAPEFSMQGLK

T2: human EpCAM expressed on cells (CHO, Colo205, 293) (human, UniProt P16422 24-314)
T2 construct: whole, on cells; also called CHO cells expressing human EpCAM; Colo205 cells expressing human EpCAM
T2 sequence (looked up): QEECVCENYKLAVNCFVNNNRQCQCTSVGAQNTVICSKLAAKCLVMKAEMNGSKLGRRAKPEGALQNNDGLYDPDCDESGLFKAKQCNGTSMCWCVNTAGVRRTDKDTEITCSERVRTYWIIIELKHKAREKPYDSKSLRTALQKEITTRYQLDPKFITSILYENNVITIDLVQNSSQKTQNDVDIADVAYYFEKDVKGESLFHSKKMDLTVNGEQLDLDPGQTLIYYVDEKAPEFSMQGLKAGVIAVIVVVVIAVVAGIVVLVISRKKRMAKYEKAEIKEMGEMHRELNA

T3: mouse EpCAM-ECD with C-terminal His-tag (expressed in CHO cells) (mouse, UniProt Q99JW5 24-266)
T3 construct: extracellular domain
T3 sequence (looked up): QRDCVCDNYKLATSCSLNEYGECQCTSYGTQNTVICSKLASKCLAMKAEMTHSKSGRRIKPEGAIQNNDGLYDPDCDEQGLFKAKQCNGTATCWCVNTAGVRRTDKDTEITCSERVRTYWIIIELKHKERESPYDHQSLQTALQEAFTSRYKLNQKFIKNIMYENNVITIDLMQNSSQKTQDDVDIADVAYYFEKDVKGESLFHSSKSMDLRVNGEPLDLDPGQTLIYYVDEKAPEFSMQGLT

T4: chimeric human/mouse EpCAM-ECD 1 (Homo sapiens (Human), UniProt P16422 24-265)
T4 construct: also called ch1EpCAM-his; chimeric EpCAM-ECD 1
T4 chain: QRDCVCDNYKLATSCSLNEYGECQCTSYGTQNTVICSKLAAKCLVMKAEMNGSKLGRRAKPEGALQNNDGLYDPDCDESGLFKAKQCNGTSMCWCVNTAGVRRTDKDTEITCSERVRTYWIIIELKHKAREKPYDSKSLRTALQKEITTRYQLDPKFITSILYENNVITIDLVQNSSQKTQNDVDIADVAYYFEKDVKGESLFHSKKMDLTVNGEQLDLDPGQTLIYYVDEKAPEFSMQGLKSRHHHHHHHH

B1: BAP-105-01-03 (antibody, V domains shown)
VH: QVQLQQSGAELAKPGASVKVSCKASGYTFTSYWMHWVKQRPGQGLEWIGYIRPSTGYTEYNQKFKDKATLTADKSSSTAYMQLSSLTFEDSAVYYCGDGDNWVGFANWGQGTLVTVSA
VL: QIVLTQSPAIMSASLGEEIALTCSASSSISYMHWYQQKSGTSPKLLIYSTSNLASGVPSRFSGSGSGTFYSLTISSVEAEDAADYFCHQWSTYHTFGSGTKLEIK
B2: BAP-105-01-01 (antibody, V domains shown)
VH: B1 VH with D98R
VL: B1 VL
notes: Non-conditionally active control; also called template antibody (WT)
B3: BAP-105-01-06 (antibody, V domains shown)
VH: B1 VH with D98R
VL: B1 VL with H94E
notes: also called BAP-1-5-01-06
B4: 105.4-05-04 (antibody, V domains shown)
VH: EVQLVQSGAEVKKPGATVKISCKVSGYTFTSYWMHWIRQSPSRGLEWLGYIRPSTGYTEYNQKFKDRFTISRDDSKNTAYLQMNSLKTEDTAVYYCGRGDNWVGFANWGQGTLVTVSS
VL: EIVMTQSPATLSVSPGERATLSCSASSSISYMHWYQQKPGKAPKLLIYSTSNLASGVPSRFSGSGSGTDFTLTISSLQPEDFATYYCHQWSTYETFGQGTKVEIK
B5: BAP-105.4-01-05 (antibody, V domains shown)
VH: B4 VH with S40P, S42G, R43K, L48I, D74N, A79L, K87R, T88A
VL: EIVLTQSPDFQSVTPKEKVTITCSASSSISYMHWYQQKPGKAPKLLIYSTSNLASGVPDRFSGSGSGTDFTLKISRVEAEDVGVYYCHQWSTYETFGQGTKVEIK
notes: Humanized

Assays:
[1] = target: T1, recombinant human EpCAM extracellular …; assay: ELISA on human EpCAM, pH range 5.0 to 7.4
[2] = target: T2, human EpCAM expressed on cells (CHO, …); assay: FACS on Colo205 cells, antibody at 1 ug/mL, pH 6.0 and pH 7.4
Description: The binding activity of these anti-EpCAM antibodies to EpCAM expressing Colo205 cells were measured by fluorescence activated cell sorting (FACS) at two different pH values of 6.0 and 7.4. Different dosages of the antibodies of 10 μg/mL, 1 μg/mL, 0.1 μg/mL and 0.01 μg/mL were used.

[3] = target: T5, cyno EpCAM (recombinant, ELISA antigen) (cynomolgus monkey); assay: direct binding ELISA, cyno EpCAM; ratio of the printed IC50 at pH 7.4 to pH 6.0
T5 construct: extracellular domain; also called cynomolgus EpCAM extracellular domain

[4] = target: T2, human EpCAM expressed on cells (CHO, …); assay: FACS on Colo205 cells expressing human EpCAM, pH 7.4
Description: (§1) Binding activities of the humanized conditionally active anti-EpCAM antibodies to Colo205 cells expressing human EpCAM were measured by FACS at pH 6.0 and pH 7.4. […] The EC50 values for binding to the Colo205 cells expressing human EpCAM by the humanized conditionally active anti-EpCAM antibodies are summarized in Table 9.

[5] = target: T5, cyno EpCAM (recombinant, ELISA antigen); assay: direct binding ELISA, cyno EpCAM, pH 6.0 (printed as IC50)
[6] = target: T1, recombinant human EpCAM extracellular …; assay: ELISA, human EpCAM, pH 7.4
Description: (§2) The binding activities of the humanized conditionally active anti-EpCAM antibodies to human EpCAM were measured by ELISA, using the template antibody BAP-1-5-01-06, as a control. The EC50 values of the humanized conditionally active anti-EpCAM antibodies for binding to human EpCAM at pH 6.0 and pH 7.4 are summarized in Table 5.
(§3) The ELISA assay was performed using the following protocol: [0388] 1) Coat ELISA plates with 100 μL of 0.5 μg/mL (06_20_17 and 06_28_17 Experiments) or 1 μg/mL (07_06_17 and 07_11_17 Experiments) recombinant EpCAM antigen in carbonate-bicarbonate coating buffer [0389] 2) Cover plates with sealing film and incubate overnight at 4° C. [0390] 3) Decant plates and tap out residual liquid on a stack of paper towels [0391] […] 5) Add 200 μL of various pH incubation buffers to the wells according to the sample map.

[7] = target: T1, recombinant human EpCAM extracellular …; assay: direct binding ELISA, human EpCAM, pH 7.4 (table prints IC50, the text paragraph 376 says EC50)
[8] = target: T2, human EpCAM expressed on cells (CHO, …); assay: FACS on Colo205 cells expressing human EpCAM, pH 6.0
Description: as §1

[9] = target: T1, recombinant human EpCAM extracellular …; assay: direct binding ELISA, human EpCAM; ratio of the printed IC50 at pH 7.4 to pH 6.0
[10] = target: T5, cyno EpCAM (recombinant, ELISA antigen); assay: direct binding ELISA, cyno EpCAM, pH 7.4 (printed as IC50)
[11] = target: T5, cyno EpCAM (recombinant, ELISA antigen); assay: ELISA, cyno EpCAM, pH 7.4
Description: (§4) The binding activities of the humanized conditionally active anti-EpCAM antibodies to cyno EpCAM were similarly measured. The EC50 for binding to the cyno EpCAM at pH 6.0 and pH 7.4 for the humanized conditionally active anti-EpCAM antibodies are summarized in Table 7.
as §3
Target sequence in this assay (Q1WER1 24-265): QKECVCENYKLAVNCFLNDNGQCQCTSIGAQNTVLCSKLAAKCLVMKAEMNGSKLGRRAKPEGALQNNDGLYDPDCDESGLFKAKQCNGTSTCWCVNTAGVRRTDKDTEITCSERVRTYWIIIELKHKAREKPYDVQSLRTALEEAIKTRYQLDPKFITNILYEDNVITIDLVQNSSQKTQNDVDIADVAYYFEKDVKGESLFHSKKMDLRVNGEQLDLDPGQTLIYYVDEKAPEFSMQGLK

[12] = target: T2, human EpCAM expressed on cells (CHO, …); assay: FACS on 293 cells expressing human EpCAM, pH 7.4
Description: (§5) A similar FACS analysis was also carried out using 293 cells expressing human EpCAM. […] The EC50 values for binding to the 293 cells expressing human EpCAM by the humanized conditionally active anti-EpCAM antibodies are summarized in Table 10.

[13] = target: T5, cyno EpCAM (recombinant, ELISA antigen); assay: ELISA, cyno EpCAM, pH 6.0
Description: as §4, §3
Target sequence in this assay (Q1WER1 24-265): as above

[14] = target: T1, recombinant human EpCAM extracellular …; assay: ELISA, human EpCAM, pH 6.0
Description: as §2, §3

[15] = target: T2, human EpCAM expressed on cells (CHO, …); assay: FACS on 293 cells expressing human EpCAM, pH 6.0
Description: as §5

[16] = target: T6, cyno EpCAM expressed on 293 cells (cynomolgus monkey); assay: FACS on 293 cells expressing cyno EpCAM, pH 6.0
T6 construct: whole, on cells; also called 293 cells expressing cyno EpCAM
T6 sequence (Q1WER1 24-314): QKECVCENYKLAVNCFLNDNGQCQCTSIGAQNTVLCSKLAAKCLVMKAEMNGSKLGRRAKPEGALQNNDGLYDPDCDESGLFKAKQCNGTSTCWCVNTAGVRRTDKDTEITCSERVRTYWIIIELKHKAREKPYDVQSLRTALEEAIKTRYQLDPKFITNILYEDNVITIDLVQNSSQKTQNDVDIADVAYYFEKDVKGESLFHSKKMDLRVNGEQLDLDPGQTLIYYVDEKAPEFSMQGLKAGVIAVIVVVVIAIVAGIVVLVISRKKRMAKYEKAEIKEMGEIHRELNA
Description: (§6) A similar FACS analysis was also carried out using 293 cells expressing cyno EpCAM. […] The EC50 values for binding to the 293 cells expressing cyno EpCAM by the humanized conditionally active anti-EpCAM antibodies are summarized in Table 11.

[17] = target: T1, recombinant human EpCAM extracellular …; assay: direct binding ELISA, human EpCAM, pH 6.0 (table prints IC50, the text paragraph 376 says EC50)
[18] = target: T6, cyno EpCAM expressed on 293 cells; assay: FACS on 293 cells expressing cyno EpCAM, pH 7.4
Description: as §6

[19] = target: T1, recombinant human EpCAM extracellular …; assay: ELISA on human EpCAM at pH 6.0 after heating the antibody for 1 h at 4, 37, 45, 55 or 60 C
Description: The thermostability of the humanized conditionally active anti-EpCAM antibodies was evaluated by measuring their binding activities after heat treatment. The binding activities of the humanized conditionally active anti-EpCAM antibodies to human EpCAM after heat treatment for one (1) hour at different temperatures at pH 6.0 and pH 7.4 were measured by ELISA.
as §3

[20] = target: T1, recombinant human EpCAM extracellular …; assay: ELISA with pH titration, human EpCAM
Description: The binding activities of the humanized conditionally active anti-EpCAM antibodies to human EpCAM with pH titration were also measured by ELISA.
as §3

[21] = target: T5, cyno EpCAM (recombinant, ELISA antigen); assay: ELISA with pH titration, cyno EpCAM
Description: The binding activities of the humanized conditionally active anti-EpCAM antibodies to cyno EpCAM with pH titration was similarly measured by ELISA.
as §3
Target sequence in this assay (Q1WER1 24-265): as the sequence (Q1WER1 24-265) above

[22] = target: T3, mouse EpCAM-ECD with C-terminal His-tag …; assay: ELISA on purified His-tagged ECDs
Source text: (§7) Human, mouse and the four chimeric EpCAM extracellular domains were expressed with a C-terminal His-tag in CHO cells and purified.

[23] = target: T4, chimeric human/mouse EpCAM-ECD 1; assay: ELISA on purified His-tagged ECDs
Source text: as §7

Binder	binding result [2]	EC50 [4]	EC50 [6]	EC50 [8]	EC50 [11]	EC50 [12]	EC50 [13]	EC50 [14]	EC50 [15]	EC50 [16]	EC50 [18]	binding result [19]	other results
B1	binds												binding result [1]: binds
B2		0.268 µg/mL	0.00781 µg/mL	0.263 µg/mL	0.3 µg/mL	0.125 µg/mL	0.0112 µg/mL	0.00833 µg/mL	0.092 µg/mL	0.625 µg/mL	0.863 µg/mL		ratio (pH7.4/pH6.0) [3]: 1.44; IC50 [5]: 0.0288 µg/mL; IC50 [7]: 0.0423 µg/mL; ratio (pH7.4/pH6.0) [9]: 0.72; IC50 [10]: 0.0416 µg/mL; IC50 [17]: 0.0586 µg/mL
B3	binds											binds	
B4												binds	
B5		0.418 µg/mL	50 µg/mL	0.342 µg/mL	7.17 µg/mL	0.154 µg/mL	0.49 µg/mL	0.0134 µg/mL	0.129 µg/mL	1.6 µg/mL	11.6 µg/mL		pH inflection point [20]: 6.83 pH; pH inflection point [21]: 6.35 pH; binding result [22]: no binding; binding result [23]: no binding
